What all share (assay): cell-based or functional assay
Common to all, as to conditions: scale: β-galactosidase activity units

Test [1] addresses GAL4 DNA-binding domain alone (empty pAS2-1 vector, negative control bait) (UniProt P04386).
For test [2], the target named is hD52 bait (GAL4 DNA-binding domain fused to full-length hD52, pAS2-1hD52) (human).
The target of test [3] is hD53 bait (GAL4 DNA-binding domain fused to full-length hD53, pAS2-1hD53) (human).
Test [4] addresses hD54+ins2 bait (GAL4 DNA-binding domain fused to hD54+ins2, pAS2-1hD54+ins2) (human).
Test [5] deals with hD54-ins2 bait (GAL4 DNA-binding domain fused to hD54-ins2, pAS2-1hD54-ins2) (human).
For test [6], the target named is mD52 bait (GAL4 DNA-binding domain fused to full-length mD52, pAS2-1mD52) (mouse).
Test [7] has the same target. The source holds these as a separate data set.
In test [8] the target is mD52(1-95) bait (GAL4 DNA-binding domain fused to the N-terminal half of mD52, pAS2-1mD52(1-95)) (mouse).
Test [9] concerns the target mD52(95-185) bait (GAL4 DNA-binding domain fused to the C-terminal half of mD52, pAS2-1mD52(95-185)) (mouse).

In the case of “GAL4 activation domain alone (empty pACT2 vector, negative control interactor) (from UniProt P04386 768-881)”, the β-galactosidase activity, yeast two-hybrid (Y190) was found to be 0 in test [1]; 0 in test [2]; 0.14 in test [3]; 0 in [4]; 0 in test [5]; 0 in test [6]. In addition, the β-galactosidase activity, yeast two-hybrid (Y190) in [7] is 0.34; in test [8] it was 0.36; in test [9], 0.23.

Take “hD52 interactor (GAL4 activation domain fused to hD52, pAD-GAL4hD52, library clone starting at nt 46) (from UniProt P04386 761-881)”: the β-galactosidase activity, yeast two-hybrid (Y190) came out at 0.17 in test [1]; 0.87 in test [2]; 3 in [3]; 0.85 in test [4]; 1.74 in [5]; 0.16 in [6].

Turning to “hD54+ins2 interactor (GAL4 activation domain fused to hD54+ins2, pACT2hD54+ins2) (from UniProt P04386 768-881)”, the β-galactosidase activity, yeast two-hybrid (Y190) in [1] is 0; in [2], 2.03; in [3], 6.01; in test [4], 5.98; in [5], 3.51; in [6], 0.48.

In the case of “hD54-ins2 interactor (GAL4 activation domain fused to hD54-ins2, pACT2hD54-ins2) (from UniProt P04386 768-881)”, the β-galactosidase activity, yeast two-hybrid (Y190) was determined as 0.45 in test [1]; 1.15 in [2]; 2.26 in test [3]; 2.03 in [4]; 1.07 in test [5]; 0.44 in [6].

As to “mD52(1-163) interactor (GAL4 activation domain fused to mD52 amino acids 1-163, pACT2mD52(1-163)) (from UniProt P04386 768-881)”, the β-galactosidase activity, yeast two-hybrid (Y190) stood at 0 in test [1]; 1.3 in test [2]; 5.71 in [3]; 4.25 in test [4]; 2.37 in test [5]; 0.42 in test [6].

Source of the values: patent US6528283.
